# Assay results reported in patent publication US20030148417.
# Columns and labels:
# [1] = target: Pepstatin A
# [2] = target: bovine haemoglobin, P01966
# bovine haemoglobin, P01966, sequence (P01966 2-142, chain 1 of 2): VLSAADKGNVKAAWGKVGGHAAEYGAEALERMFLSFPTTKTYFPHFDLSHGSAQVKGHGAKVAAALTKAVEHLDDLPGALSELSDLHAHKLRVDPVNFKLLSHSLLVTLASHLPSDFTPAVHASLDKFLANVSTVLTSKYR
# bovine haemoglobin, P01966, sequence (chain, as listed by the source, chain 2 of 2): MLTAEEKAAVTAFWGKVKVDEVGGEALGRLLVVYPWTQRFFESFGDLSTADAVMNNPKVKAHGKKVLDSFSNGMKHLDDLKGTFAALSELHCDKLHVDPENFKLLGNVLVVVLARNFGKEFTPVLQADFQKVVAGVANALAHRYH
protein,measurement,setting,value
"recombinant TcAP2 protein (aspartic endoproteinase from Theobroma cacao, secreted by Yarrowia lipolytica clone pCY330-33) (protein) VSNDGLVRIGLKKMKLDPNNRLAARLDSKDGEALRAFIKKYRFRNNLGDSEETDIVALKNYMDAQYYGEIGIGTPTQKFTVIFDTGSSNLWVSSTKCYFSVACYFHEKYKASDSSTYKKDGKPASIQYGTGAISGFFSYDHVQVGDLVVKDQEFIEATKEPGLTFMVAKFDGILGLGFKEISVGDAVPVWYNMIKQGLIKEPVFSFWLNRNVDEEAGGEIVFGGVDPNHYKGKHTYVPVTQKGYWQFDMGDVLIADKPTGYCAGSCAAIADSGTSLLAGPSTVITMINHAIGATGVVSQECKAVVQQYGRTIIDLLIAEAQPQKICSQIGLCTFNGAHGVSTGIESVVDESNGKSSGVLRDAMCPACEMAVVWMQNQVRQNQTQDRILSYVNELCDRVPNPMGESAVDCGSLSSMPTISFTIGGKVFDLTPEEYILKVGEGSEAQCISGFTALDIPPPRGPLWILGDIFMGRYHTVFDFGKLRVGFAEAAHHH",endoprotease activity (hydrolysis of bovine haemoglobin),[1],completely inhibited by 2 µM pepstatin
same,"pepstatin insensitive activity (hydrolysis of bovine haemoglobin, 2 µM pepstatin)",[1],"1.91±1.26 pmoles L-leucine/min/mg protein, 6.65%"
same,"hydrolysis of bovine haemoglobin (OPA assay, pH 3, 42 C)",[2],25.8±1.45 pmoles L-leucine/min/mg protein
